{
  "source": "paper PMC6441497",
  "tested_on": "Pho4 (yeast)",
  "experiment": "EMSA",
  "settings": "EMSA: 10 mM Tris-HCl pH 7.6, 1 mM MgCl2, 60 mM KCl, 3 mg/ml BSA, 1% glycerol, 1% Ficoll, 1 mM DTT, 1 ug poly(dI-dC), 100 ng calf thymus DNA, 20 ul, 10 min …",
  "data": [
    {"substance": "601 free DNA with Pho4 site", "values": [
      {"measurement": "Kd", "value": 240, "unit": "nM"}
    ]}
  ]
}
